Results published in article PMC6934413.

T1: SmcH-CC100 (Smc hinge with adjacent coiled coil) (Bacillus subtilis, UniProt P51834 400-776)
T1 sequence: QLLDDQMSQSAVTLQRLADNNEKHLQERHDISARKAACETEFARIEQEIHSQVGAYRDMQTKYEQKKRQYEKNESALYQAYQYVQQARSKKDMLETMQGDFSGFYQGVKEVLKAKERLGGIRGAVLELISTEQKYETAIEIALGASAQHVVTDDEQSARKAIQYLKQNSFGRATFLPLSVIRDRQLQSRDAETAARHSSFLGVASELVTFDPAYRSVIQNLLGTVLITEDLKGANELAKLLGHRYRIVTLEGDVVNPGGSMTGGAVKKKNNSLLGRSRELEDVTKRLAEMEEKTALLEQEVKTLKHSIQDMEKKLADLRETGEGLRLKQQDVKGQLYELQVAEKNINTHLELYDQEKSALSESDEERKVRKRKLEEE

T2: SmcHd(EQ);ScpA-N (Bacillus subtilis;Bacillus subtilis, UniProt P51834;P35154 1-219+=GPG+983-1186;1-86, E1118Q;internal_change|)
T2 sequence 1: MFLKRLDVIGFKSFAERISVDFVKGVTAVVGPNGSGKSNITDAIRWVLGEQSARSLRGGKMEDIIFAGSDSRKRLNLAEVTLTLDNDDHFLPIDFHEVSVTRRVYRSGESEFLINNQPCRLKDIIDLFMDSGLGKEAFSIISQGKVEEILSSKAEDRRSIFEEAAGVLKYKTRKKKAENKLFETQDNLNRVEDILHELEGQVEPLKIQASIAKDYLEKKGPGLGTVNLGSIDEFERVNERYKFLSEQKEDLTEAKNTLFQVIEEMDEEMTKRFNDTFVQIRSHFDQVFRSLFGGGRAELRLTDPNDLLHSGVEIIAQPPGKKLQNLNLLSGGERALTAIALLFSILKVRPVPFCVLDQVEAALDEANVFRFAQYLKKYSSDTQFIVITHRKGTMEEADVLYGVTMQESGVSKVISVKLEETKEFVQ
T2 sequence 2: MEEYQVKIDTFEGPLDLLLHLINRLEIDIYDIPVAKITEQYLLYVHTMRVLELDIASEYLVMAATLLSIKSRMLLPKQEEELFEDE

T3: SmcHd(EQ,3A-hd);ScpA-N (Bacillus subtilis;Bacillus subtilis, UniProt P51834;P51834;P35154 1-219;983-1186;1-86, K60A;R120A;K122A;EQ|)
T3 sequence 1: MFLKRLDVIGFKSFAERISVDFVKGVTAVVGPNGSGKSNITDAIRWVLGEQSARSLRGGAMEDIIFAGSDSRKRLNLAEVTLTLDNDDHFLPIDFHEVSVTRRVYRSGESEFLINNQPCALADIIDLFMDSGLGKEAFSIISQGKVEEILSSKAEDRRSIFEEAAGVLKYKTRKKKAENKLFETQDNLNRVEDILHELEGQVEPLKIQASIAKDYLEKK
T3 sequence 2: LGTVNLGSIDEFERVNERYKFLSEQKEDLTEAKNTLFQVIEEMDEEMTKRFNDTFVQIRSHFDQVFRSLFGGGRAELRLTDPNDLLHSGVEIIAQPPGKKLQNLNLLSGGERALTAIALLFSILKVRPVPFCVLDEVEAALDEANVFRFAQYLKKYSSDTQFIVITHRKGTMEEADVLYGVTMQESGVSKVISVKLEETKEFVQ
T3 sequence 3: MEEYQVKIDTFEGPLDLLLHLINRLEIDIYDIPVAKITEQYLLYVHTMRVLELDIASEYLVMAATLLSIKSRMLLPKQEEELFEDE


How the values were obtained:
[1] = target: Smc-HaloTag with J-Cys (S152C) (Bacillus subtilis) (UniProt P51834); assay: cross-linking
[2] = target: T1, SmcH-CC100 (Smc hinge with adjacent …); assay: fluorescence anisotropy
SmcHd(EQ);ScpA-N = target: T2, SmcHd(EQ);ScpA-N; assay: fluorescence anisotropy
SmcHd(EQ,3A-hd);ScpA-N = target: T3, SmcHd(EQ,3A-hd);ScpA-N; assay: fluorescence anisotropy

| fraction of Smc-HT in the cross-linked species [1] [%] | Molecule | binding result [2] | binding result (SmcHd(EQ);ScpA-N) | binding result (SmcHd(EQ,3A-hd);ScpA-N) |
| --- | --- | --- | --- | --- |
| 66 | Smc-HaloTag with J-Cys (S152C) (from UniProt P51834 1-1186) (natural protein) | – | – | – |
| – | 40 bp random sequence dsDNA (dsDNA) DNA 1: TTAGTTGTTCGTAGTGCTCGTCTGGCTCTGGATTACCCGC DNA 2: GCGGGTAATCCAGAGCCAGACGAGCACTACGAACAACTAA | binds | binds | no binding |
